We go through one molecule from patent US20020123042A1 (CHIRON, published 2002).

The target of this experiment is T1, full-length HA-epitope tagged huBUB1 (plasmid p396-1) (human, UniProt O43683 1-1085).
T1 construct: In vitro translated; precipitated with anti-HA monoclonal antibody and Protein G beads; also called HA-huBUB1; HA-BUB1; not shown: triple HA tag
The experiment is described as follows: anti-HA co-immunoprecipitation of in vitro translated proteins, BUB3 present. From the text:
³⁵S-methionine-labeled proteins and polypeptides were then produced from these plasmids by coupled in vitro transcription/translation reactions (IVT), as described above. IVT reactions were immunoprecipitated (IP), using either anti-FLAG agarose beads (Kodak IBI) or anti-HA monoclonal antibody combined with Protein G beads (BMB). Beads were extensively washed as previously described to ensure the removal of non-specifically-associated proteins, including relatively stringent washes in 2 M NaCl buffer. Bound proteins were released from beads by heating samples in SDS-sample buffer and were analyzed on 10-20% SDS-PAGE gels. Aliquots of initial ³⁵S-labeled translation reactions were analyzed as well.

B1: wild-type huBUB1 (full-length, plasmid p385-1) (enzyme)
chain: MDTPENVLQMLEAHMQSYKGNDPLGEWERYIQWVEENFPENKEYLITLLEHLMKEFLDKKKYHNDPRFISYCLKFAEYNSDLHQFFEFLYNHGIGTLSSPLYIAWAGHLEAQGELQHASAVLQRGIQNQAEPREFLQQQYRLFQTRLTETHLPAQARTSEPLHNVQVLNQMITSKSNPGNNMACISKNQGSELSGVISSACDKESNMERRVITISKSEYSVHSSLASKVDVEQVVMYCKEKLIRGESEFSFEELRAQKYNQRRKHEQWVNEDRHYMKRKEANAFEEQLLKQKMDELHKKLHQVVETSHEDLPASQERSEVNPARMGPSVGSQQELRAPCLPVTYQQTPVNMEKNPREAPPVVPPLANAISAALVSPATSQSIAPPVPLKAQTVTDSMFAVASKDAGCVNKSTHEFKPQSGAEIKEGCETHKVANTSSFHTTPNTSLGMVQATPSKVQPSPTVHTKEALGFIMNMFQAPTLPDISDDKDEWQSLDQNEDAFEAQFQKNVRSSGAWGVNKIISSLSSAFHVFEDGNKENYGLPQPKNKPTGARTFGERSVSRLPSKPKEEVPHAEEFLDDSTVWGIRCNKTLAPSPKSPGDFTSAAQLASTPFHKLPVESVHILEDKENVVAKQCTQATLDSCEENMVVPSRDGKFSPIQEKSPKQALSSHMYSASLLRLSQPAAGGVLTCEAELGVEACRLTDTDAAIAEDPPDAIAGLQAEWMQMSSLGTVDAPNFIVGNPWDDKLIFKLLSGLSKPVSSYPNTFEWQCKLPAIKPKTEFQLGSKLVYVHHLLGEGAFAQVYEATQGDLNDAKNKQKFVLKVQKPANPWEFYIGTQLMERLKPSMQHMFMKFYSAHLFQNGSVLVGELYSYGTLLNAINLYKNTPEKVMPQGLVISFAMRMLYMIEQVHDCEIIHGDIKPDNFILGNGFLEQDDEDDLSAGLALIDLGQSIDMKLFPKGTIFTAKCETSGFQCVEMLSNKPWNYQIDYFGVAATVYCMLFGTYMKVKNEGGECKPEGLFRRLPHLDMWNEFFHVMLNIPDCHHLPSLDLLRQKLKKVFQQHYTNKIRALRNRLIVLLLECKRSRK
notes: Full-length, untagged protein made in vitro (T7 TnT kit), 35S-methionine-labeled or unlabeled; also called full-length huBUB1; untagged huBUB1
For the molecule B1, the binding result is given as “no binding”.
